Target: His6-tagged αSyn (human) (UniProt P37840)
Assay: BLI

## E234G/H363A-HYPE (from UniProt Q9BVA6 102-458) (enzyme)
  Kd: 15.3 µM

From doi:10.1101/525659
